Source: patent publication US7262177B2, “Conjugates of glycosylated/galactosylated peptide, bifunctional linker, and nucleotidic monomers/polymers, and related compositions and methods of use” (priority 2000, dated 2007)
Where two headings read alike, the source gives them in different places.

Key:
[1] = test system: Hep G2 cells; assay: Inhibition of Hep G2 cellular proliferation (cell counting), 1-mer conjugates; assay type: cell-based, human
Experimental: Hep G2 cells were seeded into a 48-well plate in RPMI supplemented with 10% FCS at a density of 5×10^4 cells/well. Cells were then allowed to incubate at 37° C., 95% RH, 5% CO2 for 24 hrs. After this incubation period, the maintainence medium was aspirated and cells were treated with various concentrations of neoglycoconjugate in 200 μl of RPMI supplemented with 10% FCS. Control wells were treated with 200 μl of RPMI+10% FCS alone. At 0, 24, 48, 72 and 96 hrs, six wells for each condition were washed twice with 0.5 ml of DPBS and treated with 0.5 ml of trypsin (0.25%; prepared in HBSS with 1.0 mM EDTA). Cell number for each condition were determined a using a Coulter electronic cell counter. In all cases, the extent of inhibition of proliferation increased as a function of time. […] Therefore, the type of linkage that conjugates the nucleotide analog to YEE(ahGalNAc)3 influences the ability to inhibit proliferation.

[2] = test system: Hep G2 human hepatoma xenografts; assay: Bioefficacy against human hepatoma (Hep G2) xenografts in nude mice; assay type: in vivo, CD-1 nude mice
Text: Xenotransplanted tumors have been previously shown to be responsive to 5FU chemotherapy as assayed by direct physical measurement of the tumor (Houghton et al., Biochem. Pharmacol., 36, 1285-1289 (1987)), histological changes and biochemical measurements, such as alpha-fetoprotein (AFP) levels (Lemoine et al., Pathol. Biol. (Paris), 47, 903-910 (1999)) and thymidylate synthase levels (Peters et al., J. Clin Oncol., 12, 2035-2042 (1994)). The xenograft tumors in nude mice are a widely used model for tumor studies that allows for direct measurement of the growth of human tumors. Male CD-1 nude mice (6-8 weeks old, 20-22 g in weight) were used for these bioefficacy studies. An injection of 10^8 Hep G2 cells was made subcutaneously into the subcapsular region of each mouse. Mice were observed daily for tumor formation. After tumors emerged, they were measured twice a week in two dimensions with sliding calipers. When the tumors reached a weight of 100 mg in weight as determined by the formula: [(weight, mg)=(length (mm)×width (mm))^2/2], treatment was initiated (Geran et al., Cancer Chemother. Rep., 3, 51-61 (1972)). Initially, mice were treated with 10 mg/kg dose once/week for 8 weeks. Subsequently, separate cohorts of mice were treated with 15 mg/kg weekly for 8 weeks and finally 10 mg/kg twice weekly for 8 weeks. The impact of treatment upon tumor growth was judged by direct measurement as described above. In addition, tumor progression was tracked by serological measurements, such as AFP levels. AFP levels were assayed weekly following each injection. Blood was taken retro-orbitally from each mouse. AFP levels were assayed immunochemically, using kits supplied by Abbott Laboratories (Waukegan, Ill.) and based on the methods of Wang et al. (Cancer Res., 50, 869s-872s (1990)). Measurements of AFP levels were intended to complement direct physical measurement as an indicator of tumor progression. Generally, serum AFP levels behave as if they reflect tumor mass. However, it should be noted that moderately raised AFP levels have been found in some patients with uncomplicated liver disease. Despite these false positives, serum AFP levels have been successfully used to monitor response to therapy (Johnson, J. Gastroent Hepatol., 14 (Suppl.), s32-s36 (1999)) especially in the tumor-bearing nude mice, where the human tumor is the only source of human AFP. Results from such assays provide an early indication of HCC potential before it is manifested as physical tumor growth. The data generated by the above experiments should aid in the derivation of starting doses for larger mammal testing and subsequent clinical studies.

[3] = Serum stability of 35S labeled po 1-mer conjugate, PAGE analysis; assay type: in vitro ADME; settings: human serum, 37° C.
Experimental: Studies were carried out at physiological conditions. The analyses were accomplished using reversed-phase HPLC and PAGE methods. The raw data are presented in table format (Tables 1, 2 and 3). The serum half-life calculated is t1/2=1/k (0.693), derived from the [A]=[A0]e^−kt, where [A0] is the original amount of substrate, [A] is the measured substrate level, t is time (min), and k is the first-order rate constant.
Reaction Conditions: 2 μl of human serum were added to 200,000 cpm of dry ^35S labeled po 1-mer conjugate. Radiolabeled conjugate was incubated at 37° C. in the presence of this serum for the allotted time periods (15 min, 30 min, 60 min, 120 min, 240 min). The reaction mixture was diluted with 2 μl of H2O, then 4 μl of loading buffer. The degradation pattern was observed through autoradiography of a 20% polyacylamide gel (0.75 mm) run at 800 V for 90 min. Bands were quantified through the use of a Fujix BAS 2000 Phosphorimager (Table 3).

[4] = Stability of 1-mer conjugates in RPMI 1640+10% FCS (PAGE); assay type: in vitro ADME; settings: up to 8 hrs, PAGE analysis
Experimental: Initially, the stability of the two neoglycoconjugates was assessed in RPMI 1640+10% FCS. […] In terms of cellular uptake, the po-linked conjugate at a dose of 1 μM was taken up rapidly in a progressive manner by Hep G2 cells in vitro to the extent of 24.75 pmoles/10^6 cells at 480 min. The rate of cellular uptake was next analyzed with respect to the administered dose of the conjugate. […] This amount doubled within the next 30 min and peaked at 25 pmoles/million cells at 480 min. […] While the administration of 4 μM conjugate led to a linear increase of conjugate uptake with respect to time, the rate at which cellular uptake occurred upon the administration of 8 μM conjugate rose sharply at 120 min.

[5] = 10 mg/kg twice weekly, after 3 weeks
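Throughout, for % injected dose in LIVER: male CD-1 mice given radiolabeled test agent intravenously, organs removed at each time point and dissolved, radioactivity per organ measured by scintillation counting with efficiency correction.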

CC(=O)N[C@H]1[C@H](OCCCCCCNC(=O)CC[C@H](NC(=O)CC[C@H](NC(=O)[C@H](Cc2ccc(O)cc2)NC(=O)C2CCC(CN3C(=O)CC(SCCCCCCOP(=O)(O)OC[C@H]4O[C@@H](n5cc(F)c(=O)[nH]c5=O)C[C@@H]4O)C3=O)CC2)C(=O)NCCCCCCO[C@@H]2O[C@H](CO)[C@H](O)[C@H](O)[C@H]2NC(C)=O)C(=O)NCCCCCCO[C@@H]2O[C@H](CO)[C@H](O)[C@H](O)[C@H]2NC(C)=O)O[C@H](CO)[C@H](O)[C@@H]1O (stereo partly shown) [po 1-mer, YEE(ahGalNAc)3-SMCC-poFU]
inhibition of proliferation ([1]; 1 μM, compared to untreated control, listed as po-linked conjugate): 64%
more active than the ps-linked conjugate ([1]; in vitro proliferation of Hep G2 cells): approximately 30%
body weight [2, 5]: moderate reduction in body weight
tumor progression [2, 5]: significant reduction in tumor progression
tumors ([2]; 10 mg/kg twice weekly, after 6 weeks): beyond detection
effect on tumor growth ([2]; 10 mg/kg weekly for 8 weeks): mild inhibition of tumor growth
histological analysis of tumors ([2]; 10 mg/kg weekly, after 8 weeks): reduced mitotic index and increased amount of necrotic tissue
average tumor weight ([2]; 10 mg/kg weekly, at 8 weeks (saline control about 15 g)): about 7 g
body weight (clinical toxicity) ([2]; 15 mg/kg weekly): steady weight gain equivalent to that of a non-tumor bearing mice
tumor burden ([2]; 15 mg/kg weekly, after 2 additional injections (7)): tumor burden was eradicated in one mouse and the tumor size was reduced in the others
tumor progression ([2]; 15 mg/kg weekly, after 5 injections): almost static
histological analysis of tumor ([2]; 15 mg/kg weekly, after treatment): very low mitotic index and extensive necrosis
% injected dose in LIVER (15 MIN after tail vein i.v.): Fifty-seven
% injected dose in LIVER (60 MIN after tail vein i.v.): 25%
% injected dose in LIVER (480 MIN after tail vein i.v.): virtually no
Normalized Area ([3]; 0 min): 0
Pixel Area ([3]; 0 min): 42.57
Standardized Area ([3]; 0 min): 1
Normalized Area ([3]; 15 min): 0.1486
Pixel Area ([3]; 15 min): 57.43
Standardized Area ([3]; 15 min): 0.8514
Normalized Area ([3]; 30 min): 0.2404
Pixel Area ([3]; 30 min): 66.61
Standardized Area ([3]; 30 min): 0.7596
Normalized Area ([3]; 60 min): 0.3435
Pixel Area ([3]; 60 min): 76.92
Standardized Area ([3]; 60 min): 0.6565
Normalized Area ([3]; 120 min): 0.39
Pixel Area ([3]; 120 min): 81.57
Standardized Area ([3]; 120 min): 0.61
Normalized Area ([3]; 240 min): 0.3756
Pixel Area ([3]; 240 min): 80.13
Standardized Area ([3]; 240 min): 0.6244
stability in media containing 10% FCS [4]: stable
